The target in data set [1] is T1, recombinant human HSD17B13 (Homo sapiens, UniProt Q7Z5P4).
T1 sequence (Q7Z5P4 20-300): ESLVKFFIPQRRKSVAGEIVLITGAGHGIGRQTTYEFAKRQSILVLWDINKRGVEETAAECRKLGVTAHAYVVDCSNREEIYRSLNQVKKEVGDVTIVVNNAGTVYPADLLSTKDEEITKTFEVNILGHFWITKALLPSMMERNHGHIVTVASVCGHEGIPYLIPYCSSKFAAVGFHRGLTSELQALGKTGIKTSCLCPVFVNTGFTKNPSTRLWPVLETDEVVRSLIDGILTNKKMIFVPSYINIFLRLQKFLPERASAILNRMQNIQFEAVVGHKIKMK
Kind of data set: Substrate screening of steroid and bioactive lipid libraries against purified recombinant HSD17B13 (NADH-Glo). The data set is classed as biochemical. To be noted: putative substrate screen with recombinant protein. The procedure:
Reactions were performed in a final volume of 40 μL of assay buffer (0.2 M Tris-HCl, pH 7.5) which contained 500 μM NAD^±, 5 μM bioactive lipid or 50 μM steroid (all in a final concentration of 5% DMSO), and 100 ng recombinant human HSD17B13. Reactions were incubated for 3 hours, at 23° C., after which an equal volume NADH-Glo Detection Reagent (Promega) was added. Following a 1 hour incubation at 23° C., the relative light units (RLUs) were measured on an Envision Plate Reader (Perkin Elmer). Raw RLU values were normalized as percent of control (50 μM estradiol) following subtraction of negative control (5% DMSO) using the following formula: Percent of control (POC)=100×(Sample (RLU)−Negative CTRLaverage)/(Positive CTRLaverage−Negative CTRLaverage).

The subject of another data set is HepG2 cells. Kind of data set: Quantification of intracellular triglyceride content in stable cell lines. The format is cell-based, human. To be noted: for intracellular triglyceride content versus GFP control: cell lines overexpressing isoform, oleic acid treatment. The procedure: HepG2 cells were cultured in Eagle's Minimum Essential Medium supplemented with 10% fetal bovine serum. HSD17B13 transcripts A and D were sub-cloned into Myc-DDK backbone lentivirus constructs, and lentivirus were generated. HepG2 cells were infected with lentivirus carrying the HSD17B13 transcripts. Stable cell lines expressing each HSD17B13 transcript were selected with 1-3 mg/ml Geneticin G-418 sulfate in complete culture medium for two weeks. Following fixation, HSD17B13 isoforms were detected with mouse anti-Myc antibody. Lipid droplets were labeled with BODIPY FL dye (Sigma). Secondary antibodies for immunofluorescence were Alexa Fluor 488 donkey anti-rabbit IgG and Alexa Fluor 594 donkey anti-mouse IgG (Jackson ImmunoResearch).
The triglyceride (TG) content from the stable cells was determined using a TG quantification kit (Abcam). In the assay, TG are converted to free fatty acids and glycerol. The glycerol is then oxidized to generate a product which is quantified (spectrophotometry at λ=570 nm).

Data set [2] has as its system HEK293 cells overexpressing HSD17B13 transcript A, transcript D or GFP. Nature of the data set: Cell-based estradiol to estrone conversion in culture media (LC-MS). More on the design: species or system human. To be noted: overexpressed in HEK293 cells, estradiol 1 μM, 48 hours. The procedure:
HEK293 cells overexpressing HSD17B13 transcript A, transcript D or green fluorescent protein (GFP, control) were used to investigate the activity of HSD17B13 against estradiol in a cell-based assay. Estradiol (1 μM) was fed to each cell type. After 48 hours, the media was collected and the concentration of estradiol and its converted product estrone were identified and quantified by LC-MS.

The target in another data set is T2, HSD17B13 (Homo sapiens, UniProt Q7Z5P4).
T2 construct: Transcript A, which encodes the full-length 300 amino acid protein; 10x His (C); host or cells: E. coli
T2 sequence (Q7Z5P4 with tags, fused parts or gaps): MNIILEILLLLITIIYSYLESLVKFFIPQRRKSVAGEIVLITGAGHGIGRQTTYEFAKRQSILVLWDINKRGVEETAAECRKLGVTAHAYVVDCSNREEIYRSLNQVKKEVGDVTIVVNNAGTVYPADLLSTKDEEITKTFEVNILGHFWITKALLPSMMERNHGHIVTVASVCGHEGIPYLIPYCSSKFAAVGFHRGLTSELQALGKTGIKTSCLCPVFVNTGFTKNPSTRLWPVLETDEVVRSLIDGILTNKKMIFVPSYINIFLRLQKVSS
Nature of the data set: In vitro enzymatic activity of recombinant HSD17B13 isoforms A and D (NADH production, NAD(P)H-Glo). The data set is classed as biochemical. The procedure:
Recombinant human HSD17B13 protein was purified from E. coli (Genscript) transformed with plasmid DNA harboring HSD17B13 transcript A or transcript D. The HSD17B13 variants contained a 10× His tag at the C terminus and were purified from soluble fraction using a Ni2^+ affinity purification. Enzymatic activity was determined through measurement of NADH production using the NAD(P)H-Glo Detection System (Promega). Reactions were performed for 3 hours at 25° C. in 0.2 M Tris-HCl, pH 7.5, 0.5 mM NAD^+, 75 μM of substrate (Sigma) and 500 ng purified enzyme in a final volume of 100 μL. After incubation, 20 μL of the reaction was combined with 20 μL luciferase reagent (Promega), incubated at room temperature for 1 hour and read on an Envision Plate Reader (Perkin Elmer).

Where only a bound is given, the exact number is not on record here.

Regarding `CCCCCC(O)C=CC=CCCCCCCCC(=O)O` (stereo not drawn) [13-Hydroxyoctadecadienoic acid], the “enzymatically converted by HSD17B13 (oxidation of a hydroxyl to a ketone group)” value in data set [1] was “enzymatically converted”.
Still for that read-out and setting: as for `C[C@]12CC[C@@H]3c4ccc(O)cc4CC[C@H]3[C@@H]1CC[C@@H]2O` [estradiol, 17-beta estradiol], the entry is “enzymatically converted”.
The same measure, in the same setting: the same measure for `CCCCC/C=C\C[C@@H](O)/C=C/C=C/C=C\[C@@H](O)CCCC(=O)O` [leukotriene B4]: “enzymatically converted”.
`CCCCCCCC/C=C\CCCCCCCC(=O)O` [oleic acid, reference compound]: the “triglyceride (TG) content” value in the data set on HepG2 cells (increasing concentrations of oleic acid, HepG2 GFP control and HSD17B13 Transcript A and D cell lines) is “increased triglyceride (TG) content”.

B1: HSD17B13 Isoform A: HSD17B13 Protein Isoform A, SEQ ID NO: 12; full-length 300 amino acid protein encoded by Transcript A (protein, listed as Homo sapiens)
chain: MNIILEILLLLITIIYSYLESLVKFFIPQRRKSVAGEIVLITGAGHGIGRQTTYEFAKRQSILVLWDINKRGVEETAAECRKLGVTAHAYVVDCSNREEIYRSLNQVKKEVGDVTIVVNNAGTVYPADLLSTKDEEITKTFEVNILGHFWITKALLPSMMERNHGHIVTVASVCGHEGIPYLIPYCSSKFAAVGFHRGLTSELQALGKTGIKTSCLCPVFVNTGFTKNPSTRLWPVLETDEVVRSLIDGILTNKKMIFVPSYINIFLRLQKFLPERASAILNRMQNIQFEAVVGHKIKMK
modifications: (1)..(70) Region Encoded by Exon 1; (71)..(106) Region Encoded by Exon 2; (107)..(150) Region Encoded by Exon 3; (151)..(185) Region Encoded by Exon 4; (186)..(232) Region Encoded by Exon 5; (233)..(271) Region Encoded by Exon 6v1; (272)..(300) Region Encoded by Exon 7
On to B1, for which the “conversion of estradiol (substrate) to estrone (product) measured in the culture media” value in data set [2] is “robust conversion”. Further, the “intracellular triglyceride content versus GFP control” value with HepG2 cells is given as “No differences”.

B2: HSD17B13 Isoform D: HSD17B13 Protein Isoform D, SEQ ID NO: 15; prematurely truncated protein encoded by Transcript D of the rs72613567 variant (protein, listed as Homo sapiens)
chain: T2 sequence (Q7Z5P4 with tags, fused parts or gaps)
modifications: (1)..(70) Region Encoded by Exon 1; (71)..(106) Region Encoded by Exon 2; (107)..(150) Region Encoded by Exon 3; (151)..(185) Region Encoded by Exon 4; (186)..(232) Region Encoded by Exon 5; (233)..(271) Region Encoded by Exon 6v2; (272)..(274) Region Encoded by Exon 7
Consider B2, for which, in the data set with HSD17B13 (estradiol, leukotriene B4, 13-Hydroxyoctadecadienoic acid, recombinant protein in vitro), the “activity towards the three substrates” value is given as “greatly reduced activity”. Also, the “activity towards estradiol in vitro compared to HSD17B13 isoform A” value with HSD17B13 (estradiol, recombinant protein, NAD cofactor) was “greatly reduced activity”. In addition, the “enzymatic activity of the corresponding values for Isoform A” value with HSD17B13 (substrates 17-beta estradiol, leukotriene B4, 13(S)-HODE, recombinant protein) is under 10%. In addition, the “conversion of estradiol (substrate) to estrone (product) measured in the culture media” value in data set [2] is listed as “did not show much conversion”; in data set [2] (listed as HSD17B13 isoform D), “greatly reduced activity”. In addition, in the data set on HepG2 cells, the “intracellular triglyceride content versus GFP control” value is on record as “No differences”.

These data come from US10787647B2, “HSD17B13 variants and uses thereof” (Regeneron Pharmaceuticals, Inc., priority 2017, dated 2020).
